Laboratory results: paper PMC9482650, “Quantitative fragmentomics allow affinity mapping of interactomes” (Nature Communications, 2022)

T1: APBA3_1, O96018
T1 sequence (O96018 389-490, limits assumed, looked up): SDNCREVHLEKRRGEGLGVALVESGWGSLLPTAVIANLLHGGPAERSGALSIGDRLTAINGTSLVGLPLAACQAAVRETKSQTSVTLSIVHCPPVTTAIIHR

T2: ARHGAP21, Q5T5U3
T2 sequence (Q5T5U3 45-169, limits assumed, looked up): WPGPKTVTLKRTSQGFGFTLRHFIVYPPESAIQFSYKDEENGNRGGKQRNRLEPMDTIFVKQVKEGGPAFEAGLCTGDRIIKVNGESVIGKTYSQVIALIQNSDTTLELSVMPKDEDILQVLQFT

T3: CARD11, Q9BXL7
T3 sequence (Q9BXL7 662-765, limits assumed, looked up): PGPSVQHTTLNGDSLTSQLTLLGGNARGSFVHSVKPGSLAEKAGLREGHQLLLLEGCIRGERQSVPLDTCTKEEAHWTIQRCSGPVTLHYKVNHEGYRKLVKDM

T4: DVL3, Q92997
T4 sequence (Q92997 244-331, limits assumed, looked up): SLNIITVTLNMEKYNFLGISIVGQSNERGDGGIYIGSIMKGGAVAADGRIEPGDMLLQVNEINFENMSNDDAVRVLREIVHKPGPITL

T5: MPDZ_10, O75970
T5 sequence (O75970 1624-1722, limits assumed, looked up): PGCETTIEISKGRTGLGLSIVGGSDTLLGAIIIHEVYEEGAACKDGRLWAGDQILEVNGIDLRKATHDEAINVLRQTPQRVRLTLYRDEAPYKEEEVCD

T6: MPP7, Q5T2T1
T6 sequence (Q5T2T1 134-230, limits assumed, looked up): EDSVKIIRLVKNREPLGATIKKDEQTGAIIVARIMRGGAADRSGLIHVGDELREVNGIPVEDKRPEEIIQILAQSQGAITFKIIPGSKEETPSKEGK

T7: NHERF3_4, Q5T2W1
T7 sequence (Q5T2W1 373-468, limits assumed, looked up): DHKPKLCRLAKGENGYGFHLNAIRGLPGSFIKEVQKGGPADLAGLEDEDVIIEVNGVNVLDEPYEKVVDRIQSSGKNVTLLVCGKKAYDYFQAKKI

T8: RADIL, Q96JH8
T8 sequence (Q96JH8 971-1071, limits assumed, looked up): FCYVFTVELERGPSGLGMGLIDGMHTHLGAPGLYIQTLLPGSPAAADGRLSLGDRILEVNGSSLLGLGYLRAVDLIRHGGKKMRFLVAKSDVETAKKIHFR


Tests used:
Assay in all cases: holdup assay
Set-up in all cases: key: below the threshold = too weak to quantify, mostly under pKd 3.1 to 4
Conditions in all cases: plain residues with an end cap or a label only (N-terminal biotin on a linker: ado-ado)
APBA3_1, O96018 = target: T1, APBA3_1, O96018
ARHGAP21, Q5T5U3 = target: T2, ARHGAP21, Q5T5U3
ARHGEF12, Q9NZN5-2 = target: ARHGEF12, Q9NZN5-2
CARD11, Q9BXL7 = target: T3, CARD11, Q9BXL7
DLG2_2, Q15700 = target: DLG2_2, Q15700
DLG4_1, P78352 = target: DLG4_1, P78352
DVL3, Q92997 = target: T4, DVL3, Q92997
FRMPD2_3, Q68DX3 = target: FRMPD2_3, Q68DX3
FRMPD4, Q14CM0 = target: FRMPD4, Q14CM0
GORASP1, Q9BQQ3 = target: GORASP1, Q9BQQ3
GRIP2_5, Q9C0E4 = target: GRIP2_5, Q9C0E4
Inadl_10, Q8NI35 = target: Inadl_10, Q8NI35
Inadl_6, Q8NI35 = target: Inadl_6, Q8NI35
Inadl_9, Q8NI35 = target: Inadl_9, Q8NI35
LDB3, O75112 = target: LDB3, O75112
LNX1_1, Q8TBB1 = target: LNX1_1, Q8TBB1
LNX1_2, Q8TBB1 = target: LNX1_2, Q8TBB1
MAGI1_1, Q96QZ7 = target: MAGI1_1, Q96QZ7
MAGI2_2, Q86UL8 = target: MAGI2_2, Q86UL8
MAGI2_3, Q86UL8 = target: MAGI2_3, Q86UL8
MAGI2_4, Q86UL8 = target: MAGI2_4, Q86UL8
MAGI3_2, Q5TCQ9 = target: MAGI3_2, Q5TCQ9
MPDZ_10, O75970 = target: T5, MPDZ_10, O75970
MPP7, Q5T2T1 = target: T6, MPP7, Q5T2T1
NHERF3_4, Q5T2W1 = target: T7, NHERF3_4, Q5T2W1
NOS1, P29475 = target: NOS1, P29475
PDZRN4_1, Q6ZMN7 = target: PDZRN4_1, Q6ZMN7
PTPN3, P26045 = target: PTPN3, P26045
RADIL, Q96JH8 = target: T8, RADIL, Q96JH8
SCRIB_3, Q14160 = target: SCRIB_3, Q14160
SCRIB_3, Q14160, sequence (Q14160 999-1103): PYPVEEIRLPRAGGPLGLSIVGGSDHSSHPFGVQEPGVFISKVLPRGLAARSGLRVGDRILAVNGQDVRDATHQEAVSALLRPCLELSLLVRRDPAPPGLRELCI

LNX1_1, Q8TBB1, sequence (Q8TBB1 261-371): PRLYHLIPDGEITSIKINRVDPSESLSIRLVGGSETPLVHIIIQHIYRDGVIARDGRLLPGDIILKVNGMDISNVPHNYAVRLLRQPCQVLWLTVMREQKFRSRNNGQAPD
MAGI2_2, Q86UL8, sequence (Q86UL8 410-522): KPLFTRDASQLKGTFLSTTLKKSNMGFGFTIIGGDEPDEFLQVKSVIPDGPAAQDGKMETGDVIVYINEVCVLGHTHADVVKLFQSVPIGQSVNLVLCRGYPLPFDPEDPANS
MAGI2_3, Q86UL8, sequence (Q86UL8 600-682): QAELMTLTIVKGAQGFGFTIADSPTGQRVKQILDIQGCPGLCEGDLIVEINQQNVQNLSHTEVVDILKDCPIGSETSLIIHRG
Inadl_6, Q8NI35, sequence (Q8NI35 1058-1167): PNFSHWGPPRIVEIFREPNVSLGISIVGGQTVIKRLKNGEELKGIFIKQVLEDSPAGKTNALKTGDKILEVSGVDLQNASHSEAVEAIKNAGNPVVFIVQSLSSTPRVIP
ARHGEF12, Q9NZN5-2, sequence (Q9NZN5 other isoform, or with tags, fused parts or gaps): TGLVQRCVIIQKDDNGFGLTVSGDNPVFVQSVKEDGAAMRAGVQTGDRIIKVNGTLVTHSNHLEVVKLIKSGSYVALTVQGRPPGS
LDB3, O75112, sequence (O75112 1-94): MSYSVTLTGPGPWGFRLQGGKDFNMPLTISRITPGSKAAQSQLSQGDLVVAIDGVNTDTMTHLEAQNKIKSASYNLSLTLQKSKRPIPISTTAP
PDZRN4_1, Q6ZMN7, sequence (Q6ZMN7 213-318): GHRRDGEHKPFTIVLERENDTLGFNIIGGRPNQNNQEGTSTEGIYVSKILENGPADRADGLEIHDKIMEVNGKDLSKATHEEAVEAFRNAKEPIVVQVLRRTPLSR
Inadl_9, Q8NI35, sequence (Q8NI35 1530-1615): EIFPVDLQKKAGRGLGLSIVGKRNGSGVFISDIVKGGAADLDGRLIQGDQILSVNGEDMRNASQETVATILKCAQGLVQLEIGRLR
NOS1, P29475, sequence (P29475 9-101): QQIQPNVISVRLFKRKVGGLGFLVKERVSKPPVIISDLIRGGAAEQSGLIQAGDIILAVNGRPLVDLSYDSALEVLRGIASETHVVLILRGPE
GORASP1, Q9BQQ3, sequence (Q9BQQ3 1-208): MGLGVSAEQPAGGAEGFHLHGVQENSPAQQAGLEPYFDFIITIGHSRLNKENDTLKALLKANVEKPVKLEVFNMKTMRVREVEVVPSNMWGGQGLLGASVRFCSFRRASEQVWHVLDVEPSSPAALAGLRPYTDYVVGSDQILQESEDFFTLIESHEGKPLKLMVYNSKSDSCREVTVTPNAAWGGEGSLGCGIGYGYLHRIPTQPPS
DLG2_2, Q15700, sequence (Q15700 189-283): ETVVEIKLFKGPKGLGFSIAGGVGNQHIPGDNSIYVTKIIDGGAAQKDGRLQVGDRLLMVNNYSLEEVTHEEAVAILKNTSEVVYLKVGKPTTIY
MAGI3_2, Q5TCQ9, sequence (Q5TCQ9 398-503): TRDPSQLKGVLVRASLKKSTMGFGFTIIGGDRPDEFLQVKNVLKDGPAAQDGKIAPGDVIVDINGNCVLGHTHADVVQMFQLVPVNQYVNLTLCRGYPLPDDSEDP
PTPN3, P26045, sequence (P26045 505-587): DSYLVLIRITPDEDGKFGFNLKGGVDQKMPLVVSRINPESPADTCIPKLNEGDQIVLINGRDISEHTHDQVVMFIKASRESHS
Inadl_10, Q8NI35, sequence (Q8NI35 1673-1763): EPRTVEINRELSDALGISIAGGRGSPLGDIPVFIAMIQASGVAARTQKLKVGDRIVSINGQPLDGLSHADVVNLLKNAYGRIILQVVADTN
GRIP2_5, Q9C0E4, sequence (Q9C0E4 544-642): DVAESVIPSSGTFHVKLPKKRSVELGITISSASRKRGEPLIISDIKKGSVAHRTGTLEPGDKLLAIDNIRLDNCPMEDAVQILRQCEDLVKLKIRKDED
MAGI1_1, Q96QZ7, sequence (Q96QZ7 1-106): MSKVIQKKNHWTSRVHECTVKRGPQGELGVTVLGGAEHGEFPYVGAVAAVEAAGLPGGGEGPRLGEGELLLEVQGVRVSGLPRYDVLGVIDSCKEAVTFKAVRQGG
FRMPD4, Q14CM0, sequence (Q14CM0 67-160): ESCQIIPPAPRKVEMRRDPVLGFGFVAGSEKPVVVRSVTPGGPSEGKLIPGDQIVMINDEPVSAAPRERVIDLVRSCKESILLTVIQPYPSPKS
LNX1_2, Q8TBB1, sequence (Q8TBB1 371-470): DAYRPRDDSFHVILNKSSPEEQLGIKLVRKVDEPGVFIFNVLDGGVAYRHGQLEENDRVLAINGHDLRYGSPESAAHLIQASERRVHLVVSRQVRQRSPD
FRMPD2_3, Q68DX3, sequence (Q68DX3 1073-1166): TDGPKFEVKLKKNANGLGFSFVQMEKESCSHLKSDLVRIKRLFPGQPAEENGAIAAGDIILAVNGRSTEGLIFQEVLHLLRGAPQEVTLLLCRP
MAGI2_4, Q86UL8, sequence (Q86UL8 772-865): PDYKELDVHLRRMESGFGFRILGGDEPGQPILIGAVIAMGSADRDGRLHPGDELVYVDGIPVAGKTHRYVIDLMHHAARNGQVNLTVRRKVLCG
DLG4_1, P78352, sequence (P78352 62-152): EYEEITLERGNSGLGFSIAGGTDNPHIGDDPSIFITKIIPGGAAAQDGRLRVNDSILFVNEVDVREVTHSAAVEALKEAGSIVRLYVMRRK

Binder	pKd (APBA3_1, O96018)	pKd (ARHGAP21, Q5T5U3)	pKd (ARHGEF12, Q9NZN5-2)	pKd (CARD11, Q9BXL7)	pKd (DLG2_2, Q15700)	pKd (DLG4_1, P78352)	pKd (DVL3, Q92997)	pKd (FRMPD2_3, Q68DX3)	pKd (FRMPD4, Q14CM0)	pKd (GORASP1, Q9BQQ3)	pKd (GRIP2_5, Q9C0E4)	pKd (Inadl_10, Q8NI35)	pKd (Inadl_6, Q8NI35)	pKd (Inadl_9, Q8NI35)	pKd (LDB3, O75112)	pKd (LNX1_1, Q8TBB1)	pKd (LNX1_2, Q8TBB1)	pKd (MAGI1_1, Q96QZ7)	pKd (MAGI2_2, Q86UL8)	pKd (MAGI2_3, Q86UL8)	also measured
QYPGSPDSWV [PKP4, Q99569]	3.63	3.56	3.54	below the threshold	4.03	4.26	3.93	below the threshold	3.53	3.79	3.58	3.75	4.21	3.72	3.82	3.98	3.78	below the threshold	below the threshold	below the threshold	pKd (MAGI2_4, Q86UL8): 4.32; pKd (MAGI3_2, Q5TCQ9): below the threshold; pKd (MPDZ_10, O75970): 3.7; pKd (MPP7, Q5T2T1): below the threshold; pKd (NHERF3_4, Q5T2W1): below the threshold; pKd (NOS1, P29475): 3.78; pKd (PDZRN4_1, Q6ZMN7): 4.06; pKd (PTPN3, P26045): 4.96; pKd (RADIL, Q96JH8): 4.89; pKd (SCRIB_3, Q14160): 4.48
DFRHKSSFVI [JAM3, Q9BX67]	below the threshold	below the threshold	below the threshold	below the threshold	below the threshold	below the threshold	below the threshold	below the threshold	below the threshold	4.82	below the threshold	below the threshold	below the threshold	below the threshold	3.76	below the threshold	below the threshold	below the threshold	below the threshold	below the threshold	pKd (MAGI2_4, Q86UL8): below the threshold; pKd (MAGI3_2, Q5TCQ9): below the threshold; pKd (MPDZ_10, O75970): below the threshold; pKd (MPP7, Q5T2T1): 3.79; pKd (NHERF3_4, Q5T2W1): below the threshold; pKd (NOS1, P29475): below the threshold; pKd (PDZRN4_1, Q6ZMN7): below the threshold; pKd (PTPN3, P26045): 3.84; pKd (RADIL, Q96JH8): 3.96; pKd (SCRIB_3, Q14160): below the threshold
GQETPLNTFC [MAP7D2, Q96T17]	below the threshold	below the threshold	3.77	below the threshold	below the threshold	below the threshold	below the threshold	below the threshold	below the threshold	3.61	below the threshold	below the threshold	below the threshold	below the threshold	below the threshold	below the threshold	below the threshold	below the threshold	below the threshold	below the threshold	pKd (MAGI2_4, Q86UL8): below the threshold; pKd (MAGI3_2, Q5TCQ9): below the threshold; pKd (MPDZ_10, O75970): below the threshold; pKd (MPP7, Q5T2T1): below the threshold; pKd (NHERF3_4, Q5T2W1): below the threshold; pKd (NOS1, P29475): below the threshold; pKd (PDZRN4_1, Q6ZMN7): below the threshold; pKd (PTPN3, P26045): 4.38; pKd (RADIL, Q96JH8): below the threshold; pKd (SCRIB_3, Q14160): below the threshold
